According to PMC10872345:

What was measured:
[1] = target: Biotinylated human E-cadherin K14E mutant ectodomains (human); experiment: single-molecule AFM force spectroscopy
[2] = target: Biotinylated human E-cadherin ectodomains (EC1-5), wild type (human); experiment: single-molecule AFM force spectroscopy

average unbinding force [1] [pN]	unbinding force, lower peak (un-strengthened, with 40 nM 66E8 Fab) [1] [pN]	unbinding force, second peak (strengthened, with 40 nM 66E8 Fab) [1] [pN]	peak unbinding force [2] [pN]	unbinding force, lower peak (un-strengthened, with 40 nM 66E8) [2] [pN]	unbinding force, second peak (strengthened, with 40 nM 66E8) [2] [pN]	Substance
42.8	39.4	62.3				Biotinylated human E-cadherin K14E mutant ectodomains (domain or fragment)
			48.3	45.2	63.3	Biotinylated human E-cadherin ectodomains (EC1-5), wild type (domain or fragment)
